The results in this text go back to patent publication US20260216242A1 (ALMAC DISCOVERY, published 2026).

Substitutions are numbered along the chain they refer to.

The labels stand for the following.
T1: Human ALPL (leucine zipper) (human)
T1 construct: Whole entry: fused with a cysteine stabilised leucine zipper and His tag; also called hALPL
T1 chain: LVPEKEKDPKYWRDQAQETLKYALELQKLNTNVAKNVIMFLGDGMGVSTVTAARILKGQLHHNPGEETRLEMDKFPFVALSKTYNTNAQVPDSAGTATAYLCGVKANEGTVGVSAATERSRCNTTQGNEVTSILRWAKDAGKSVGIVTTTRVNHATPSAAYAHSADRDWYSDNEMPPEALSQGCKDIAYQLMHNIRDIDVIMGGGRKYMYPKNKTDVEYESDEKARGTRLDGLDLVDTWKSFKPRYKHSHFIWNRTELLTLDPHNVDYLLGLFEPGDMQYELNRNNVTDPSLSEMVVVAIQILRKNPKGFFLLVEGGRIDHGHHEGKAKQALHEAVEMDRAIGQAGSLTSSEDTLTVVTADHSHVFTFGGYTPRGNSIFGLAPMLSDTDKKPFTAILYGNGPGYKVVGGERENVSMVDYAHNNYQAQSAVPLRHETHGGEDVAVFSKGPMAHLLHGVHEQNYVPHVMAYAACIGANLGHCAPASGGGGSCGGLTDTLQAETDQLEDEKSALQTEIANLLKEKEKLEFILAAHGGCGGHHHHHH

T2: human ALPI on CHO cells (human, UniProt P09923 20-503)
T2 construct: whole, on cells; also called CHO-ALPI
T2 sequence (looked up): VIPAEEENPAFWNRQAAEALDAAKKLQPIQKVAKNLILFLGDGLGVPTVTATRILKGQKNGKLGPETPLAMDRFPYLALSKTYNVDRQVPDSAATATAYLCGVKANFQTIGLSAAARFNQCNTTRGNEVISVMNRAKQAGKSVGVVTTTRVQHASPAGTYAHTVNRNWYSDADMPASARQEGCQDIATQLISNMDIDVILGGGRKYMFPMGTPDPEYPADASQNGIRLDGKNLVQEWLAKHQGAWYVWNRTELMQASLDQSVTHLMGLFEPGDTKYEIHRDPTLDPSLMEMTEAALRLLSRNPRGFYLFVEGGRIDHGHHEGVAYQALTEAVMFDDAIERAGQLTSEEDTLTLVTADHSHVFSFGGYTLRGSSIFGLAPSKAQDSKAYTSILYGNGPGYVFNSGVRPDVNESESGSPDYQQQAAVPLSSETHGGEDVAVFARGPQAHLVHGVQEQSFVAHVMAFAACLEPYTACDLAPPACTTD

T3: human ALPL on CHO cells (human, UniProt P05186 18-501)
T3 construct: whole, on cells; also called CHO-ALPL
T3 sequence (looked up): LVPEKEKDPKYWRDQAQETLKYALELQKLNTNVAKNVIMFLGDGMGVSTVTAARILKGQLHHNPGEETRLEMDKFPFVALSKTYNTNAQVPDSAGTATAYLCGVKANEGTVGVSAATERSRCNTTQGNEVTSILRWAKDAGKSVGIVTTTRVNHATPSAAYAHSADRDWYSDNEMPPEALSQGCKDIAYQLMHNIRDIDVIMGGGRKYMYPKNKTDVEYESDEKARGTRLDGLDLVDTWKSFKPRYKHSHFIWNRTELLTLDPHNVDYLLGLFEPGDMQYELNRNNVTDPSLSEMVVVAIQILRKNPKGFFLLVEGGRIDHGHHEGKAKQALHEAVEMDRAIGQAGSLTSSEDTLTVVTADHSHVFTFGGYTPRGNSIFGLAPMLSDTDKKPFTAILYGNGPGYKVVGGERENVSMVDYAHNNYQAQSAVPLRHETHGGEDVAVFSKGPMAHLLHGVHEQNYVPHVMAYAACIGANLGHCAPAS

B1: F08 His (VHH, not shown: small tags and cut ends)
VHH: QVQLVESGGGSVQAGGSLRLSCAASGPSLSNYAMGWFRQAPGKEREFVAGISWGGGRTSYTDSVKGRFTISRDNAKNTVYLQMNNLKPEDTGVYYCAGRYGRGRNVEYEYDYWGQGTQVTVSS
notes: also called #269
B2: E10 His (VHH, not shown: small tags and cut ends)
VHH: QVQLVESGGGLVQAGGSLRLSCAVSGRALSDYNIGWFRQAPGKEREFVARKTWDGSSTRYDDSVKGRFTVSIEDAKNTAYLQMSSLKTEDTAVYYCAAGRYSRARGWEYDYWGQGTQVTVSS
notes: also called #265
B3: F05 His (VHH, not shown: small tags and cut ends)
VHH: B2 VHH with V24A, L29F, S30G, K51R, E73D, D74N, S84N, A104V
B4: E06 His (VHH, not shown: small tags and cut ends)
VHH: QVHLVESGGGLVQAGGSLRLSCAASRRSFSEYAMGWFRQAPGKEREFVAAIGWSGVIEYADSVKGRFTISRDNAKDTVYLQMNSLKPEDTAVYYCAAGLGIRVVSQTPAYWGQGTQVTVSS
B5: D10 His (VHH, not shown: small tags and cut ends)
VHH: QVQLVESGGGLVQPGGSLRLSCAASGSIFSVNTMGWYRQAPGKQRDLVAVATSGGTIHYADSVKGRFTISRDNAKNTVYLQMNSLKPEDTAVYYCNLVVPYGMIAGDHDYWGQGTKVTVSS
B6: D04 His (VHH, not shown: small tags and cut ends)
VHH: QVQLVESGGGLVQPGGSLRLSCAASESTFSINVMGWYRQAPGKQRELVATITSGDITNYADSVKGRFTISRDNAENTVYLRTNSLKPEDTAVYYCNARGEYHSGNEYDYWGQGTQVTVSS
B7: A05 His (VHH, not shown: small tags and cut ends)
VHH: QVQLVESGGGLVQAGASLTLSCAASGFTFNTRSIVWFRQAPGKEREAVSCISKVAGSTYYGDSVQGRFSSSTDNAKNTVSLQMNSLKPEDTAVYTCAASFAPNCYGWSVAANMEYWGEGTMVTVSS
notes: also called #249
B8: C07 His (VHH, not shown: small tags and cut ends)
VHH: QVQLVESGGGLVQAGESLRLACAASGTIFSGNAVGWYRQAPEKQREWVSSITDYGDTDYAEAVKGRFTISRDNAKNTVYLQMNSLKPEDTAVYYCYVYQRGESEEYWGQGTQVTVSS
notes: also called #258
B9: A06 His (VHH, not shown: small tags and cut ends)
VHH: QVHLVESGGGLVQAGGSLRLSCAASGRTFLSMGWFRQAPGKEREFVAAISWTGGSTGYADSVKGRFTISRESDKETMYLQMNSLKPEDTAVYYCAARGDVYYGGDDATRYKYWGQGTQVTVSS
notes: also called #250

One experiment has as its target T1, Human ALPL (leucine zipper). The experiment in a line: BLI, antigen immobilised. The method, then: Binding kinetics were determined using the Biolayer Interferometry (BLI) Octet K2 system (Sartorius). […] All assays were conducted in PBS with a plate temperature of 25° C. Ka (M⁻¹s⁻¹), Kd (s⁻¹) and KD (nM) values were determined using Octet Data Analysis High Throughput software (ForteBio) for Biolayer Interferometry.
In general terms: In BLI a coated tip is dipped into the sample, and binding shifts an interference pattern.
Regarding B1, the binding result was “no binding”.
Still for that read-out and setting: the same measure for B2: “no binding”; for B3: “no binding”.
With B4, the binding result is listed as “no binding”.
Consider B5, for which the binding result is recorded as “no binding”.
Same read-out and setting: then B6, with “no binding”; and B7, with “no binding”; and B8, with “no binding”.
On the same count and under the same terms, the same measure for B9: “no binding”.

The target of a further experiment is T4, human ALPP on CHO cells (human, UniProt P05187 23-506).
T4 construct: whole, on cells; also called CHO-ALPP
T4 sequence (P05187 23-506): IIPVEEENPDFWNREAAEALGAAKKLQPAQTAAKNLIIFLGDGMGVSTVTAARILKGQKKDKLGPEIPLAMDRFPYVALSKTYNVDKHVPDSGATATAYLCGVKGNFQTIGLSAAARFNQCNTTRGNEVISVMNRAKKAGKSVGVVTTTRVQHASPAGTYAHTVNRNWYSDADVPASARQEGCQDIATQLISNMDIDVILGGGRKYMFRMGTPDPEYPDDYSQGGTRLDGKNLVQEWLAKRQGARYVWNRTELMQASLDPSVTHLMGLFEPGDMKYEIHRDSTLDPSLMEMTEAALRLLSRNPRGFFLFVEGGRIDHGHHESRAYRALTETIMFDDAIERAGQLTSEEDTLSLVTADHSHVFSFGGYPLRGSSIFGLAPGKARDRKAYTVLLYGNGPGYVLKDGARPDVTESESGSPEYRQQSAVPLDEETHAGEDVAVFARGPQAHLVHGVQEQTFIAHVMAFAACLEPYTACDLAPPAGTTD
The experiment in a line: flow cytometry, CHO cells, 350 nM. As for the experimental part: (§1) Cell surface binding of test agents to hALPP isoforms was characterized in four CHO-ALPP isoform stably transfected cell lines (CHO-ALPP, CHO-ALPPL2, CHO-ALPI and CHO-ALPL) and the resulting KDapp values determined. Adherent cells were detached from tissue culture flasks by incubating with 0.1% EDTA/PBS solution at 37° C. for ~10 minutes or until cells detached easily. Cells were re-suspended in ice-cold PBS/2% FCS in 15 ml tubes and centrifuged at 1700 rpm for 5 mins at 4° C. Supernatant was removed and the cell pellet re-suspended in PBS/2% FCS. […] Cells were incubated with 100 μl of test agents at a range of concentrations, plus controls for 1 hr on ice. The sample plate was centrifuged at 1700 rpm for 5 mins at 4° C. The supernatant was removed, and a wash performed by re-suspending the cell pellets in 0.25 mL of ice-cold PBS/2% FCS using a multichannel pipette. Samples were again centrifuged at 1700 rpm for 5 min at 4° C. Supernatant was removed and two further washes performed as described. After the final wash and centrifugation step, excess liquid was removed by blotting the plate on tissue paper. Binding of VHH (His6 tagged) agents was determined by adding 100 μl of anti-x6His tag Ab (Abcam) per cell pellet sample as appropriate and incubating on ice for 30 mins. Wash steps were performed as described previously. Fitc-anti-mouse antibody (ThermoFisher) was used to detect binding of the VHH (His6 tagged) agents by incubating with the appropriate samples for 30 min on ice in the dark. Wash steps were performed as described previously. All cell pellets were finally re-suspended in […] of ice-cold PBS/2% FCS and left on ice in the dark prior to analysis on a Merck-Millipore Guava EasyCyte HT or Thermo Fisher Attune N×T flow cytometer.
B1 gave an MFI of 7370 MFI.
Still for that read-out and setting: then B6, with 6650 MFI.

The next experiment addresses T2, human ALPI on CHO cells. The experiment in a line: flow cytometry, CHO cells, 350 nM. As for the experimental part: as §1
In general terms: A flow cytometer gives signals particle by particle.
B1: the MFI was found to be 99 MFI and the “fold lower MFI for ALPI binding versus ALPP” value was found to be 75 fold.
For the molecule B6, the MFI worked out at 629 MFI.

The next experiment has as its target T2, human ALPI on CHO cells. Kind of experiment: flow cytometry, CHO cells stably expressing human ALPI; His6-tagged VHH detected with anti-His tag Ab and FITC anti-mouse Ab. As for the experimental part: (§2) C-terminal His tagged VHH proteins were assessed for ALPP, ALPPL2, ALPI and ALPL cell-surface binding by flow cytometry. Binders encompassing different epitope bins were screened on CHO cells stably expressing ALPP, ALPPL2, ALPI or ALPL. High levels of cell-surface proteins expression were confirmed for each of the cell-lines by flow cytometry.
as §1
As to B2, the binding result is “no binding (tested: 350 nM)”.
Take B3: the binding result is on record as “no binding (tested: 350 nM)”.
Consider B4, for which the binding result is recorded as “no binding (tested: 350 nM)”.
The same measure, in the same setting: then B5, with “no binding (tested: 350 nM)”; and B7, with “no binding (tested: 350 nM)”.
The same measure, in the same setting: then B8, with “no binding (tested: 350 nM)”; and B9, with “no binding (tested: 350 nM)”.

The target of another experiment is T3, human ALPL on CHO cells. The experiment in a line: flow cytometry, CHO cells stably expressing human ALPL; His6-tagged VHH detected with anti-His tag Ab and FITC anti-mouse Ab. As for the experimental part:
as §2, §1
In the case of B1, the binding result is “no binding (tested: 350 nM)”.
Still for that read-out and setting: the same measure for B2: “no binding (tested: 350 nM)”; for B3: “no binding (tested: 350 nM)”; for B4: “no binding (tested: 350 nM)”.
Turning to B5, the binding result is “no binding (tested: 350 nM)”.
The same measure, in the same setting: the same measure for B6: “no binding (tested: 350 nM)”.
Still for that read-out and setting: the same measure for B7: “no binding (tested: 350 nM)”; for B8: “no binding (tested: 350 nM)”.
Same read-out and setting: the same measure for B9: “no binding (tested: 350 nM)”.
